{
  "source": "the supplement of paper PMC10567573",
  "parents": {"B1": {"name": "SLC2A12 (parent)", "chain": "TRIMIGLTLVFFVQITGQPNILFY"}},
  "data": [
    {"variants_of": "B1", "test": "protein stability index of a GFP-peptide fusion (GPS, HEK-293T) (PSI 1-6); higher = more stable", "details": "c terminus: a fixed tail appended", "values": [
      {"variant": "TRIMIGLTLVFFVQITGQVNILFY", "protein stability index": 3.9},
      {"variant": "TRIMIGLTLVFFVQITGQTNILFY", "protein stability index": 3.21},
      {"variant": "TRIMIGLTLVFFVQITGQINILFY", "protein stability index": 3.15},
      {"variant": "TRIMIGLTLVFFVQITGQGNILFY", "protein stability index": 2.96},
      {"variant": "TRIMIGLTLVFFVQITGQYNILFY", "protein stability index": 2.23},
      {"variant": "TRIMIGLTLVFFVQITGQFNILFY", "protein stability index": 3.16},
      {"variant": "TRIMIGLTLVFFVQITGQQNILFY", "protein stability index": 2.6},
      {"variant": "TRIMIGLTLVFFVQITGQRNILFY", "protein stability index": 3.63},
      {"variant": "TRIMIGLTLVFFVQITGQLNILFY", "protein stability index": 3.42},
      {"variant": "TRIMIGLTLVFFVQITGQHNILFY", "protein stability index": 3.72},
      {"variant": "TRIMIGLTLVFFVQITGQMNILFY", "protein stability index": 2.83},
      {"variant": "TRIMIGLTLVFFVQITGQNNILFY", "protein stability index": 1.72},
      {"variant": "TRIMIGLTLVFFVQITGQSNILFY", "protein stability index": 2.39},
      {"variant": "TRIMIGLTLVFFVQITMQPNILFY", "protein stability index": 3.31},
      {"variant": "TRIMIGLTLVFFVQITKQPNILFY", "protein stability index": 2.58},
      {"variant": "TRIMIGLTLVFFVQITRQPNILFY", "protein stability index": 3.35},
      {"variant": "TRIMIGLTLVFFVQITHQPNILFY", "protein stability index": 2.87},
      {"variant": "TRIMIGLTLVFFVQITQQPNILFY", "protein stability index": 2.8},
      {"variant": "TRIMIGLTLVFFVQITLQPNILFY", "protein stability index": 2.86},
      {"variant": "TRIMIGLTLVFFVQITYQPNILFY", "protein stability index": 3.48},
      {"variant": "TRIMIGLTLVFFVQITVQPNILFY", "protein stability index": 2},
      {"variant": "TRIMIGLTLVFFVQITWQPNILFY", "protein stability index": 2.11},
      {"variant": "TRIMIGLTLVFFVQITTQPNILFY", "protein stability index": 2.58},
      {"variant": "TRIMIGLTLVFFVQITDQPNILFY", "protein stability index": 3.49},
      {"variant": "TRIMIGLTLVFFVQITPQPNILFY", "protein stability index": 3.68},
      {"variant": "TRIMIGLTLVFFVQITNQPNILFY", "protein stability index": 3.03},
      {"variant": "TRIMIGLTLVFFVQITAQPNILFY", "protein stability index": 2.96},
      {"variant": "TRIMIGLTLVFFVQITGGPNILFY", "protein stability index": 3.24},
      {"variant": "TRIMIGLTLVFFVQITGMPNILFY", "protein stability index": 3.21},
      {"variant": "TRIMIGLTLVFFVQITGWPNILFY", "protein stability index": 3.71},
      {"variant": "TRIMIGLTLVFFVQITGDPNILFY", "protein stability index": 2.16},
      {"variant": "TRIMIGLTLVFFVQITGPPNILFY", "protein stability index": 3.94},
      {"variant": "TRIMIGLTLVFFVQITGKPNILFY", "protein stability index": 3.22},
      {"variant": "TRIMIGLTLVFFVQITGRPNILFY", "protein stability index": 3.77},
      {"variant": "TRIMIGLTLVFFVQITGSPNILFY", "protein stability index": 3.39},
      {"variant": "TRIMIGLTLVFFVQITGAPNILFY", "protein stability index": 3.12},
      {"variant": "TRIMIGLTLVFFVQITGCPNILFY", "protein stability index": 2.86},
      {"variant": "TRIMIGLTLVFFVQITGNPNILFY", "protein stability index": 2.47},
      {"variant": "TRIMIGLTLVFFVQITGVPNILFY", "protein stability index": 4.47},
      {"variant": "TRIMIGLTLVFFVQITGEPNILFY", "protein stability index": 4.17},
      {"variant": "TRIMIGLTLVFFVQITGYPNILFY", "protein stability index": 3.56},
      {"variant": "TRIMIGLTLVFFVQITGTPNILFY", "protein stability index": 2.7},
      {"variant": "TRIMIGLTLVFFVQITGHPNILFY", "protein stability index": 3.08},
      {"variant": "TRIMIGLTLVFFVQILGQPNILFY", "protein stability index": 1.04},
      {"variant": "TRIMIGLTLVFFVQIQGQPNILFY", "protein stability index": 3.11},
      {"variant": "TRIMIGLTLVFFVQISGQPNILFY", "protein stability index": 3.65},
      {"variant": "TRIMIGLTLVFFVQIWGQPNILFY", "protein stability index": 2.42},
      {"variant": "TRIMIGLTLVFFVQIYGQPNILFY", "protein stability index": 3.48},
      {"variant": "TRIMIGLTLVFFVQIPGQPNILFY", "protein stability index": 3.4},
      {"variant": "TRIMIGLTLVFFVQIIGQPNILFY", "protein stability index": 4.14},
      {"variant": "TRIMIGLTLVFFVQIAGQPNILFY", "protein stability index": 2.63},
      {"variant": "TRIMIGLTLVFFVQIHGQPNILFY", "protein stability index": 3.42},
      {"variant": "TRIMIGLTLVFFVQIEGQPNILFY", "protein stability index": 2.95},
      {"variant": "TRIMIGLTLVFFVQINGQPNILFY", "protein stability index": 4.04},
      {"variant": "TRIMIGLTLVFFVYITGQPNILFY", "protein stability index": 3.3},
      {"variant": "TRIMIGLTLVFFVRITGQPNILFY", "protein stability index": 2.38},
      {"variant": "TRIMIGLTLVFFVSITGQPNILFY", "protein stability index": 3.29},
      {"variant": "TRIMIGLTLVFFVKITGQPNILFY", "protein stability index": 3.25},
      {"variant": "TRIMIGLTLVFFVHITGQPNILFY", "protein stability index": 2.02},
      {"variant": "TRIMIGLTLVFFVNITGQPNILFY", "protein stability index": 3.37},
      {"variant": "TRIMIGLTLVFFVVITGQPNILFY", "protein stability index": 3.44},
      {"variant": "TRIMIGLTLVFFVFITGQPNILFY", "protein stability index": 2.86},
      {"variant": "TRIMIGLTLVFFVGITGQPNILFY", "protein stability index": 3.68},
      {"variant": "TRIMIGLTLVFFVWITGQPNILFY", "protein stability index": 4.35},
      {"variant": "TRIMIGLTLVFFVTITGQPNILFY", "protein stability index": 3.67},
      {"variant": "TRIMIGLTLVFFVIITGQPNILFY", "protein stability index": 2.88},
      {"variant": "TRIMIGLTLVFFVEITGQPNILFY", "protein stability index": 2.11},
      {"variant": "TRIMIGLTLVFFVAITGQPNILFY", "protein stability index": 3.31},
      {"variant": "TRIMIGLTLVFFVDITGQPNILFY", "protein stability index": 2.14},
      {"variant": "TRIMIGLTLVFFVLITGQPNILFY", "protein stability index": 3.19},
      {"variant": "TRIMIGLTLVFFVQITGQPCILFY", "protein stability index": 3.04},
      {"variant": "TRIMIGLTLVFFVQITGQPFILFY", "protein stability index": 2.45},
      {"variant": "TRIMIGLTLVFFVQITGQPMILFY", "protein stability index": 3.84},
      {"variant": "TRIMIGLTLVFFVQITGQPPILFY", "protein stability index": 3.22},
      {"variant": "TRIMIGLTLVFFVQITGQPYILFY", "protein stability index": 2.54},
      {"variant": "TRIMIGLTLVFFVQITGQPKILFY", "protein stability index": 4.43},
      {"variant": "TRIMIGLTLVFFVQITGQPVILFY", "protein stability index": 2.81},
      {"variant": "TRIMIGLTLVFFVQITGQPTILFY", "protein stability index": 2.22},
      {"variant": "TRIMIGLTLVFFVQITGQPGILFY", "protein stability index": 3.69},
      {"variant": "TRIMIGLTLVFFVQITGQPRILFY", "protein stability index": 2.67},
      {"variant": "TRIMIGLTLVFFVQITGQPHILFY", "protein stability index": 3.83},
      {"variant": "TRIMIGLTLVFFVQITGQPIILFY", "protein stability index": 2.48},
      {"variant": "TRIMIGLTLVFFVQITGQPSILFY", "protein stability index": 2.15},
      {"variant": "TRIMIGLTLVFFVQITGQPQILFY", "protein stability index": 2.61},
      {"variant": "TRIMIGLTLVFFVQITGQPEILFY", "protein stability index": 2.12},
      {"variant": "TRIMIGLTLVFFVQITGQPAILFY", "protein stability index": 3.57},
      {"variant": "TRIMIGLTWVFFVQITGQPNILFY", "protein stability index": 2.24},
      {"variant": "TRIMIGLTFVFFVQITGQPNILFY", "protein stability index": 5.04},
      {"variant": "TRIMIGLTQVFFVQITGQPNILFY", "protein stability index": 1.7},
      {"variant": "TRIMIGLTGVFFVQITGQPNILFY", "protein stability index": 2.8},
      {"variant": "TRIMIGLTAVFFVQITGQPNILFY", "protein stability index": 3.04},
      {"variant": "TRIMIGLTCVFFVQITGQPNILFY", "protein stability index": 2.63},
      {"variant": "TRIMIGLTNVFFVQITGQPNILFY", "protein stability index": 2.69},
      {"variant": "TRIMIGLTMVFFVQITGQPNILFY", "protein stability index": 2.58}
    ]}
  ]
}
